{"source": "paper doi:10.1101/2020.09.14.294884", "about": "(bioRxiv, 2020)", "molecular_target": "T1, recombinant Psb28 (from pIVEXPsb28His) (T. elongatus, UniProt Q8DLJ8 2-116)", "T1 sequence": "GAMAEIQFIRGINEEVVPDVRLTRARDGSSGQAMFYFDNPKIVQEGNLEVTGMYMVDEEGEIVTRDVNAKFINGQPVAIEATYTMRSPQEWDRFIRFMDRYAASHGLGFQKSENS", "assay": "NMR titration", "note": "Where no end group is shown, it is not given here.", "data": [{"binder": "Ac-SGIDPELSPEQVEWGFYQKV", "note": "[carboxy-terminal peptide from residues 480-499 of CP47]", "values": [{"measurement": "Kd", "value": "53.92 ± 0.41", "unit": "µM"}, {"measurement": "koff", "value": "10.1 ± 0.16", "unit": "s⁻¹"}]}]}
